These results are taken from publication PMC4158420, “Crenactin from Pyrobaculum calidifontis is closely related to actin in structure and forms steep helical filaments” (Febs Letters, 2014).

This series concerns the molecule itself. Kind of series: crystal structure; vapour diffusion, crenactin around 2-5 mg/ml, 100 mM phosphate/citrate pH 4.2, 200 mM lithium sulfate, 20% PEG 1000; space group P41212; 3.2 Å; ADP bound.

B1: Pyrobaculum calidifontis crenactin (natural protein, UniProt A3MWN5 1-432, looked up)
chain: MGVISDAYRLKYTFGVDFGTSYVKYGPITLNEPKMVQTRGLFLRDLPESVKMRIPPDVLARGLVVGDEEVRKYLSSVRDVQRNLKYPLKDGVARRDDEEAWRVLKELARYTLAQFPVSDPEFAGWLVAVALSALAPDYMYKAIFDIYDELASEFKIYAVTILPQPLAVAIAENAVNCVIVEGGHGNIQVAPISFALIREGLVALNRGGAEANAITREILKDIGYSDIAREEYAVEVVKRAVGLVPRRLKEAIRAAKSDPDRFVTKVRLSPVVEVEIPREYAWTRFLIGEIVFDPNHEEIKSYIEQSRLRIENAVIGDVTLYGEMDVASAIITSLRNVSVEIQERVASQIILSGGAFSWRVPPGMEDVAADSVTRVKIALEEKSPALASKVEVRLVSEPQYSVWRGAVIYGYALPLSLEWSDTTREGWRFPRR
notes: crenactin, Pyrobaculum calidifontis, NCBI YP_001056518.1, residues 1-432; full-length protein with no residues added or removed after SUMO cleavage; Gene codon-optimised for E. coli, cloned into pOPINS (HIS6-SUMO-POI); the crystal holds 2 monomers per asymmetric unit, packing as a continuous filament; also called Pc crenactin; source: E. coli BL21(AI), purified (HisTrap, SUMO protease SENP1 …)
With B1, the binding result is reported as “binds”.
